Results from patent publication US10597433B2, “Peptides and combination of peptides for use in immunotherapy against small cell lung cancer and other cancers” (Immatics Biotechnologies GmbH, priority 2015, dated 2020).

Each substance was assayed against HLA-A*02:01 (Homo sapiens, UniProt P04439, D140Y/D185E/D98H/E176V/E277Q/G131W/G231S/I119V/I121R/I166T/I218V/L300P/L318F/N151K/N90K/P208A/P217A/Q86G/Q94H/R138H/R169H/T345S) (assay: MHC binding assay: UV-ligand exchange with ELISA detection of β2m of stabilized MHC complexes). Conditions: binding to HLA-A*02:01.
Description: Candidate peptides for T cell based therapies according to the present invention were further tested for their MHC binding capacity (affinity). The individual peptide-MHC complexes were produced by UV-ligand exchange, where a UV-sensitive peptide is cleaved upon UV-irradiation, and exchanged with the peptide of interest as analyzed. Only peptide candidates that can effectively bind and stabilize the peptide-receptive MHC molecules prevent dissociation of the MHC complexes. To determine the yield of the exchange reaction, an ELISA was performed based on the detection of the light chain (β2m) of stabilized MHC complexes. The assay was performed as generally described in Rodenko et al. (Rodenko et al., 2006).
96 well MAXISorp plates (NUNC) were coated over night with 2 μg/ml streptavidin in PBS at room temperature, washed 4× and blocked for 1 h at 37° C. in 2% BSA containing blocking buffer. Refolded HLA-A*02:01/MLA-001 monomers served as standards, covering the range of 15-500 ng/ml. Peptide-MHC monomers of the UV-exchange reaction were diluted 100 fold in blocking buffer. Samples were incubated for 1 h at 37° C., washed four times, incubated with 2 μg/ml HRP conjugated anti-β2m for 1 h at 37° C., washed again and detected with TMB solution that is stopped with […]. Absorption was measured at 450 nm. Candidate peptides that show a high exchange yield (preferably higher than 50%, most preferred higher than 75%) are generally preferred for a generation and production of antibodies or fragments thereof, and/or T cell receptors or fragments thereof, as they show sufficient avidity to the MHC molecules and prevent dissociation of the MHC complexes.
In the case of “36 (RMDGAVTSV; listed as Homo sapiens) [compound 36]”, the “Peptide exchange (MHC class I binding score, peptide exchange yield)” value (“Peptide exchange” below) is reported as “+++ (≥50 = +++)”. In the case of “112 (LLLPGVIKTV; listed as Homo sapiens) [compound 112]”, the “Peptide exchange” value is reported as “+++ (≥50 = +++)”. With “73 (SLSSYTPDV; listed as Homo sapiens) [compound 73]” the “Peptide exchange” value was “+++ (≥50 = +++)”. “42 (GLLEDERALQL; listed as Homo sapiens) [compound 42]” was tested, and the “Peptide exchange” value was “+++ (≥50 = +++)”. In the case of “69 (KLFDRSVDL; listed as Homo sapiens) [compound 69]”, the “Peptide exchange” value is reported as “++ (≥20% = ++)”. For “66 (YLNLISTSV; listed as Homo sapiens) [compound 66]”, the “Peptide exchange” value was “+++ (≥50 = +++)”. In the case of “108 (ILLDDQFQPKL; listed as Homo sapiens) [compound 108]”, the “Peptide exchange” value is reported as “++++ (≥75% = ++++)”. In the case of “109 (SLFERLVVL; listed as Homo sapiens) [compound 109]”, the “Peptide exchange” value is reported as “++++ (≥75% = ++++)”. “87 (LLQNNLPAV; listed as Homo sapiens) [compound 87]” was tested, and the “Peptide exchange” value was “++++ (≥75% = ++++)”. In the case of “9 (AAAPGEALHTA; listed as Homo sapiens) [compound 9]”, the “Peptide exchange” value is reported as “++ (≥20% = ++)”. With “81 (LLAEIGAVTLV; listed as Homo sapiens) [compound 81]” the “Peptide exchange” value was “+++ (≥50 = +++)”. For “34 (LVFEGIMEV; listed as Homo sapiens) [compound 34]”, the “Peptide exchange” value was “+++ (≥50 = +++)”. With “120 (SLAADIPRL; listed as Homo sapiens) [compound 120]” the “Peptide exchange” value was “+++ (≥50 = +++)”. “26 (KMLDEAVFQV; listed as Homo sapiens) [compound 26]” was tested, and the “Peptide exchange” value was “++++ (≥75% = ++++)”. “13 (FLTAFLVQI; listed as Homo sapiens) [compound 13]” was tested, and the “Peptide exchange” value was “+++ (≥50 = +++)”. “53 (LLSEEHITL; listed as Homo sapiens) [compound 53]” was tested, and the “Peptide exchange” value was “++++ (≥75% = ++++)”. In the case of “17 (SLMLVTVEL; listed as Homo sapiens) [compound 17]”, the “Peptide exchange” value is reported as “+++ (≥50 = +++)”. In the case of “23 (YQIDTVINL; listed as Homo sapiens) [compound 23]”, the “Peptide exchange” value is reported as “+++ (≥50 = +++)”. With “62 (VMLPIGAVVMV; listed as Homo sapiens) [compound 62]” the “Peptide exchange” value was “+++ (≥50 = +++)”. “7 (GLLGDIAIHL; listed as Homo sapiens) [compound 7]” was tested, and the “Peptide exchange” value was “+++ (≥50 = +++)”. In the case of “77 (AIIDGKIFCV; listed as Homo sapiens) [compound 77]”, the “Peptide exchange” value is reported as “+++ (≥50 = +++)”. In the case of “5 (SLQSLIISV; listed as Homo sapiens) [compound 5]”, the “Peptide exchange” value is reported as “++++ (≥75% = ++++)”. “30 (KMLGLTVSL; listed as Homo sapiens) [compound 30]” was tested, and the “Peptide exchange” value was “+++ (≥50 = +++)”. In the case of “103 (SLLEYQMLV; listed as Homo sapiens) [compound 103]”, the “Peptide exchange” value is reported as “++++ (≥75% = ++++)”. For “28 (ILVSQLEQL; listed as Homo sapiens) [compound 28]”, the “Peptide exchange” value was “++++ (≥75% = ++++)”. With “59 (VLLSGLTEV; listed as Homo sapiens) [compound 59]” the “Peptide exchange” value was “++++ (≥75% = ++++)”. With “104 (TLIQFTVKL; listed as Homo sapiens) [compound 104]” the “Peptide exchange” value was “+++ (≥50 = +++)”. With “49 (RLALNTPKV; listed as Homo sapiens) [compound 49]” the “Peptide exchange” value was “++ (≥20% = ++)”. In the case of “22 (LLPEKSWEI; listed as Homo sapiens) [compound 22]”, the “Peptide exchange” value is reported as “+++ (≥50 = +++)”. With “90 (TLVDNISTMAL; listed as Homo sapiens) [compound 90]” the “Peptide exchange” value was “+++ (≥50 = +++)”. With “107 (AMYGTKLETI; listed as Homo sapiens) [compound 107]” the “Peptide exchange” value was “++++ (≥75% = ++++)”. In the case of “41 (KAYQELLATV; listed as Homo sapiens) [compound 41]”, the “Peptide exchange” value is reported as “+++ (≥50 = +++)”. “43 (YLWSEVFSM; listed as Homo sapiens) [compound 43]” was tested, and the “Peptide exchange” value was “+++ (≥50 = +++)”. In the case of “55 (LLIADNPQL; listed as Homo sapiens) [compound 55]”, the “Peptide exchange” value is reported as “++++ (≥75% = ++++)”. In the case of “21 (TMEEMIFEV; listed as Homo sapiens) [compound 21]”, the “Peptide exchange” value is reported as “+++ (≥50 = +++)”. “106 (KMPDDVWLV; listed as Homo sapiens) [compound 106]” was tested, and the “Peptide exchange” value was “++++ (≥75% = ++++)”. For “78 (RIIDPEDLKALL; listed as Homo sapiens) [compound 78]”, the “Peptide exchange” value was “++++ (≥75% = ++++)”. For “48 (SLIGLDLSSV; listed as Homo sapiens) [compound 48]”, the “Peptide exchange” value was “+++ (≥50 = +++)”. With “111 (FLPEAPAEL; listed as Homo sapiens) [compound 111]” the “Peptide exchange” value was “+++ (≥50 = +++)”. For “75 (SLDLHVPSL; listed as Homo sapiens) [compound 75]”, the “Peptide exchange” value was “+++ (≥50 = +++)”. “64 (VLFHQLQEI; listed as Homo sapiens) [compound 64]” was tested, and the “Peptide exchange” value was “+++ (≥50 = +++)”. “67 (MLYDIVPVV; listed as Homo sapiens) [compound 67]” was tested, and the “Peptide exchange” value was “+++ (≥50 = +++)”. For “58 (VLLNINGIDL; listed as Homo sapiens) [compound 58]”, the “Peptide exchange” value was “++++ (≥75% = ++++)”. “63 (LLMSTENEL; listed as Homo sapiens) [compound 63]” was tested, and the “Peptide exchange” value was “+++ (≥50 = +++)”. For “88 (TLHRETFYL; listed as Homo sapiens) [compound 88]”, the “Peptide exchange” value was “++++ (≥75% = ++++)”. For “38 (GLISSLNEI; listed as Homo sapiens) [compound 38]”, the “Peptide exchange” value was “++++ (≥75% = ++++)”. “118 (KLPSFLANV; listed as Homo sapiens) [compound 118]” was tested, and the “Peptide exchange” value was “+++ (≥50 = +++)”. In the case of “115 (ALLPSDCLQEA; listed as Homo sapiens) [compound 115]”, the “Peptide exchange” value is reported as “+++ (≥50 = +++)”. For “71 (FIFEQVQNV; listed as Homo sapiens) [compound 71]”, the “Peptide exchange” value was “+++ (≥50 = +++)”. In the case of “95 (ALYSKGILL; listed as Homo sapiens) [compound 95]”, the “Peptide exchange” value is reported as “++++ (≥75% = ++++)”. In the case of “126 (AAASLIRLV; listed as Homo sapiens) [compound 126]”, the “Peptide exchange” value is reported as “+ (≥10% = +)”. With “37 (SLFYNELHYV; listed as Homo sapiens) [compound 37]” the “Peptide exchange” value was “+++ (≥50 = +++)”. In the case of “99 (QMLEAIKALEV; listed as Homo sapiens) [compound 99]”, the “Peptide exchange” value is reported as “++++ (≥75% = ++++)”. “83 (KLLEIDIDGV; listed as Homo sapiens) [compound 83]” was tested, and the “Peptide exchange” value was “+++ (≥50 = +++)”. In the case of “96 (NLLKLIAEV; listed as Homo sapiens) [compound 96]”, the “Peptide exchange” value is reported as “++++ (≥75% = ++++)”. With “79 (RLLEPAQVQQL; listed as Homo sapiens) [compound 79]” the “Peptide exchange” value was “+++ (≥50 = +++)”. With “101 (AMNSQILEV; listed as Homo sapiens) [compound 101]” the “Peptide exchange” value was “+++ (≥50 = +++)”. In the case of “20 (MLDEILLQL; listed as Homo sapiens) [compound 20]”, the “Peptide exchange” value is reported as “+++ (≥50 = +++)”. For “24 (FLMEEVHMI; listed as Homo sapiens) [compound 24]”, the “Peptide exchange” value was “+++ (≥50 = +++)”. With “1 (AMLEEVNYI; listed as Homo sapiens) [compound 1]” the “Peptide exchange” value was “+++ (≥50 = +++)”. “54 (HLFDIILTSV; listed as Homo sapiens) [compound 54]” was tested, and the “Peptide exchange” value was “++++ (≥75% = ++++)”. In the case of “123 (KLDKNPNQV; listed as Homo sapiens) [compound 123]”, the “Peptide exchange” value is reported as “+++ (≥50 = +++)”.
